To fix the notation:
B1: M9-H02 (Fab, V domains shown)
VH: EVQLLESGGGLVQPGGSLRLSCAASGFTFSAYMMIWVRQAPGKGLEWVSVIYPSGGVTMYADSVKGRFTISRDNSKNTLYLQMNSLRAEDTAVYYCARGTVGASDAFDIWGQGTMVTVSS
VL: DIQMTQSPSSLSASVGDRVIITCRASRSIATYLNWYQQKPGKAPNLLIFGASTLQSGVPSRFSGSGSGTDFTLTISDLQPEDFATYYCQQSFSDPYTFGQGTNLEMK
notes: HC as printed runs into CH1
B2: M9-G08 (Fab, V domains shown)
VH: EVQLLESGGGLVQPGGSLRLSCAASGFTFSYYTMLWVRQAPGKGLEWVSSIYPSGGFTMYADSVKGRFTISRDNSKNTLYLQMNSLRAEDTAVYYCARVDTAMAMIDYWGQGTLVTVSS
VL: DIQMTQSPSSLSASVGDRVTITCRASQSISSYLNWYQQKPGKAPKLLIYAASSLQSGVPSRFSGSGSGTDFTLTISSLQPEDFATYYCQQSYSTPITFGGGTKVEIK
notes: HC as printed runs into CH1
B3: M9-F08 (Fab, V domains shown)
VH: EVQLLESGGGLVQPGGSLRLSCAASGFTFSPYAMTWVRQAPGKGLEWVSVIYPSGGFTDYADSVKGRFTISRDNSKNTLYLQMNSLRAEDTAMYYCARASGSYLDAFDIWGQGTMVTVSS
VL: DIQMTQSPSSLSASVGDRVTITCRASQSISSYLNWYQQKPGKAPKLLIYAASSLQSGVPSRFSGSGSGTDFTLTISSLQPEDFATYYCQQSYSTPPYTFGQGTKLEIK
notes: HC as printed runs into CH1; LC amber q (QMTqSPS) written as Q
B4: M9-E04 (Fab, V domains shown)
VH: EVQLLESGGGLVQPGGSLRLSCAASGFTFSEYDMMWVRQAPGKGLEWVSSIGSSGGMTYYADSVKGRFTISRDNSKNTLYLQMNSLRAEDTAVYYCARDQVAAAAIDYWGQGTLVTVSS
VL: DIQMIQSPSSLSASVGDRVTITCRASQSISGYLNWYQQRSGKAPKLLIFAASNLQTGVPSRFSGSGSGTDFTLTINNLQPEDFATYYCQQSHTPPKTFGPGTKVDIK
notes: HC as printed runs into CH1
B5: M9-F09 (Fab, V domains shown)
VH: EVQLLESGGGLVQPGGSLRLSCAASGFTFSSYPMGWVRQAPGKGLEWVSRISSSGGMTIYADSVKGRFTISRDNSKNTLYLQMNSLRAEDTAVYYCARDDWNVGMDVWGQGTTVTVSS
VL: DIQMTQSPSSLSASVGDRVTITCRASQSISSYLNWYQQKPGKAPKLLIYAASSLQSGVPSKFSGSGSGTDYTLTISSLQPEDFATYYCQQTYTTPWTFGQGTKVEIK
notes: HC as printed runs into CH1; (as printed for M28-E01)
B6: M9-F10 (Fab, V domains shown)
VH: EVQLLESGGGLVQPGGSLRLSCAASGFTFSDYDMEWVRQAPGKGLEWVSSISPSGGSTIYADSVKGRFTISRDNSKNTLYLQMNSLRAEDTAVYYCARQGLLTAFDIWGQGTMVTVSS
VL: DIQMTQSPSSLSASVGDRVTITCRASQSINTYLNWYQQKPGKAPKVLIHAASTLESGVPSRFSGSGSGTDFTLTISSLQPEDFATYYCQQSYSTPYTFGQGTKLEVR
notes: HC as printed runs into CH1
B7: M9-H03 (Fab, V domains shown)
VH: EVQLLESGGGLVQPGGSLRLSCAASGFTFSWYSMGWVRQAPGKGLEWVSYIVPSGGYTMYADSVKGRFTISRDNSKNTLYLQMNSLRAEDTAVYYCARDPGVSYYYYGMDVWGQGTTVTVSS
VL: QYELTQAPSVSVAPGQTASITCSGDKLGNRYTSWYQQKPGQSPVLVIFQDNKRPSGIPERFSGSNSGNTATLTISGTQAMDEADYYCQALDSNTYVFGTGTKVTVL
notes: HC as printed runs into CH1
B8: M9-C10 (Fab, V domains shown)
VH: EVQLLESGGGLVQPGGSLRLSCAASGFTFSLYPMQWVRQAPGKGLEWVSSIGSSGGMTFYADSVKGRFTISRDNSKNTLYLQMNSLRAEDTAVYYCTREVGAAGFAFDIWGQGTMVTVSS
VL: DIQMTQSPSSLSASVGDRVTITCRASQGISSYLNWYQQKPGNAPNLLIYGASSLQSGVPSRFSGSGSGTDFTLTISSLQPEDFATYYCQESYSTLFTFGPGTTVEIK
notes: HC as printed runs into CH1
B9: M9-D08 (Fab, V domains shown)
VH: EVQLLESGGGLVQPGGSLRLSCAASGFTFSWYKMMWVRQAPGKGLEWVSSIYPSGGWTNYADSVKGRFTISRDNSKNTLYLQMNSLRAEDTAVYYCTRGSPWGDDAFDIWGQGTMVTVSS
VL: DIQMTQSPSSLSASVGDRVTLTCRASRTISFYLNWYQQKAGKAPELLIYGGSSLHSGVPSRFSGSGSGTDFSLTISNLQPEDIAVYYCQQSFSSPWTFGQGTKVEIK
notes: HC as printed runs into CH1

T1 sequence (P03952 20-390, chain 1 of 2): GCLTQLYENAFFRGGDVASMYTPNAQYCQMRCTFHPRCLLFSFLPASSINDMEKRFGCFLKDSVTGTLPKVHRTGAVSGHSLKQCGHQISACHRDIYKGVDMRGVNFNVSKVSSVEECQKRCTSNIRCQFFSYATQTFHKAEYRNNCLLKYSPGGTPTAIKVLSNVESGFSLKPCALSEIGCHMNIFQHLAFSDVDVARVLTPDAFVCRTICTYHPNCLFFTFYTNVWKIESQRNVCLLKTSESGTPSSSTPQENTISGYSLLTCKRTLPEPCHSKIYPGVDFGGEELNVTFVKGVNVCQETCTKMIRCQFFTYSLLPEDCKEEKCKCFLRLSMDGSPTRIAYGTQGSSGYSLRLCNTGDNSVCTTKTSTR
T1 sequence (P03952 391-638, chain 2 of 2): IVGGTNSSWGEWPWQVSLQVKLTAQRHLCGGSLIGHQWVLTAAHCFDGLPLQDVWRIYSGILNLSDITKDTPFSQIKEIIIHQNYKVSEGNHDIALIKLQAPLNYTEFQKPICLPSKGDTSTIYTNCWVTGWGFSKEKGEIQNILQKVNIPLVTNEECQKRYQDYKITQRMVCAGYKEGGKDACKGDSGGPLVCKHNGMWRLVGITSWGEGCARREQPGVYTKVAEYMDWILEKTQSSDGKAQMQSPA

This assay has as its target T1, human plasma kallikrein (human, UniProt P03952 20-390; P03952 391-638).
T1 construct: also called pKal; Human pKal
As to the kind of experiment: ELISA, biotinylated pKal signal over streptavidin background. The source says:
Abbreviations used: “T/B” is the ELISA signal obtained using of the “target” (biotinylated plasma kallikrein) divided by the ELISA signal of the “background” (streptavidin); both of which were coated on microtiter plates, “nd” is not determined. The symbol “q” refers to the amber suppressible stop codon (TAG), which is translated as glutamine (Q) in strains of E. coli such as the TG1 cells that were used to express the Fab fragments.
For the molecule B1, the “ELISA (T/B)” value is 3.5 T/B. In the case of B2 it was 4.8 T/B; in that of B3, 10.9 T/B; in that of B4, 18.8 T/B. The result for B5 reads 7 T/B. The result for B6 reads 8.4 T/B; that for B7, 4.4 T/B. In the case of B8, the “ELISA (T/B)” value came to 7.8 T/B. The result for B9 reads 35.9 T/B.

Source of the values: US20260184815A1 (published 2026).
